Test results from US20240076386A1 (Pfizer, published 2024).

Legend:
[1] = molecular target: T1, mouse E-selectin extracellular domain with 10 His purification tail (mouse, UniProt Q00690 22-557); assay: AlphaLISA competition vs sialyl Lewis A-PAA-biotin
T1 construct: also called soluable mouse E-selectin extracellular domain; muE-Selctin
T1 sequence: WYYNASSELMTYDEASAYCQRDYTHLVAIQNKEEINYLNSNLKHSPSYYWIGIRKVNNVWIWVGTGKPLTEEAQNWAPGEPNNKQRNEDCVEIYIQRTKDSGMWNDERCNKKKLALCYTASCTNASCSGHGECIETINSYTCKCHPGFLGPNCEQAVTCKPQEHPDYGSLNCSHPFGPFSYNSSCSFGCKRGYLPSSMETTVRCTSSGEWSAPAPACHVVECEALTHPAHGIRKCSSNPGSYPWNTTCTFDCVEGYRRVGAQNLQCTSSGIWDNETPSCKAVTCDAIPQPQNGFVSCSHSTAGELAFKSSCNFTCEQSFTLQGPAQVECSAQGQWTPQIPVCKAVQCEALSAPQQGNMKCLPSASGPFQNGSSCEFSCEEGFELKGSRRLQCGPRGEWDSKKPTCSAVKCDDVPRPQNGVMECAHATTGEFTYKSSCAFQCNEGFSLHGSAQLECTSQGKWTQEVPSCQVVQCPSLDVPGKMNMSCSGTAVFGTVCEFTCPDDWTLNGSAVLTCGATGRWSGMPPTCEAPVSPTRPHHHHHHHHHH
Description: The neutralization ability of anti-E-selectin antibodies was measured in an AlphaLISA homogenous competition assay. […] This was incubated at room temperature for 15 minutes, followed by addition of 1.4 μL of human, mouse or cynomolgus monkey E-selectin added to a final concentration of 7 nM. This was again incubated at room temperature for 15 minutes. To this, 1.4 μL AlphaLISA beads was added (Ni-donor/SA-acceptor) for a final assay concentration of 10 μg/mL. This was incubated in the dark at room temperate for at least 10 hours. The plates were then read using the AlphaLISA protocol (Envision).

[2] = molecular target: T1, mouse E-selectin extracellular domain …; assay: antigen binding ELISA, HRP detection
Description: 384-well Maxisorp plates were used to capture the human and mouse His-tagged recombinant E-selectin polypeptides. The polypeptides were incubated with chimeric antibodies of varying concentrations and detected with HRP-labeled anti-human IgG1 antibodies.

[3] = molecular target: T1, mouse E-selectin extracellular domain …; assay: SPR, antibody captured, E-selectin analyte
Description: To characterize binding of antibodies to human, cynomolgus monkey, and mouse E-selectin, an antibody was diluted to 0.5 μg/mL in HBS-EP+ and captured by the anti-human IgG immobilized on flow cells 2, 3 and 4 for 30 seconds to 1 minute at a flow rate of 10 μL/minute to achieve a capture level of 70 to 300 RU. Flow cell 1 was used as a reference surface. […] HBS-EP+ buffer cycles collected for each captured antibody were used for double-referencing (Myszka D G. J. Mol. Recognition 1999; 12(5):279-84). At the end of each cycle, the entire anti-IgG surface was regenerated by a 30 second pulse of 3 M MgCl₂ and a 30 second pulse of ionic buffer (1.83 M MgCl₂, 0.92 M Urea, 1.83 M Guanidine HCl, pH 7.4) (Andersson K. Analy. Chem. 1999; 71(13): 2475-81). Kinetic assays were conducted at 25° C. at a collection rate of 10 Hertz (Hz) on a BIAcore™ T200 instrument (GE Healthcare). Rate constants and affinities were determined by fitting the data to a 1:1 binding model in BIAcore™ T200 Evaluation software version 3.0 (GE Healthcare).

B1: anti-E-selectin antibody 0027 chimera (antibody, human IgG1, kappa, V domains shown)
VH: EVHLHQSGPELGRPGSSVKISCKASGYTFTDYVMNWVRQSPGQGLEWIGWINPEDYSFDSGEKFLERATLTAATSSNTVYIQLSGLTSDDTATYFCVRGGLPGDWFAYWGQGTLVTVSS
VL: DIQMTQSPSFLSASVGDRITINCKTSQNINRYLNWFQQKLGEPPKLLIYNANSLQADIPSRFSGSGSGTDFTLTITSLQPEDVATYFCLQHHFWPYTFGAGTKLELRR
notes: rat VH/VL on effector-null human IgG1 (L234A, L235A, G237A, EU) and human kappa; directed to mouse E-selectin
- EC50 [1]: 1 nM
- EC50 [2]: 0.02 nM
- Kd [3]: 1.2 nM
- koff [3]: 0.000231 s⁻¹
- kon [3]: 192000 M⁻¹ s⁻¹
- t½ [3]: 50.2 min
